Test results reported in patent US20220273789A1.

Molecular target: human IgG (human)
Assay: BLI Octet, construct on Ni-NTA sensor, hIgG in solution

Substance	Kd [nM]	Response (nm)	koff [s⁻¹]	kon [M⁻¹ s⁻¹]
HSV2-gE_A248T F322I_gI (from UniProt P89475 21-416; P06764 21-256) (receptor)	8850	0.184	0.00486	549
HSV2-gE_P318S_gI (from UniProt P89475 21-416; P06764 21-256) (receptor)	9900	0.124	0.00504	509
HSV2-gE_P318T_gI (from UniProt P89475 21-416; P06764 21-256) (receptor)	14900	0.174	0.00711	478
HSV2-gE_R314D_gI (from UniProt P89475 21-416; P06764 21-256) (receptor)	900	0.385	0.00583	6480
HSV2-gE_R314F_gI (from UniProt P89475 21-416; P06764 21-256) (receptor)	884	0.325	0.0048	5430
HSV2-gE_H245G_gI (from UniProt P89475 21-416; P06764 21-256) (receptor)	1630	0.424	0.00669	4110
HSV2-gE_R314E_gI (from UniProt P89475 21-416; P06764 21-256) (receptor)	1300	0.306	0.0058	4470
HSV2-gE_A246W R320D_gI (from UniProt P89475 21-416; P06764 21-256) (receptor)	< 0.001	0.0712	< 1e-07	2260
HSV2-gE_A248G F322A_gI (from UniProt P89475 21-416; P06764 21-256) (receptor)	270	0.559	0.00352	13100
HSV2-gE_H245Q_gI (from UniProt P89475 21-416; P06764 21-256) (receptor)	320	0.896	0.0048	15000
HSV2-gE_P318R_gI (from UniProt P89475 21-416; P06764 21-256) (receptor)	794	0.151	0.000756	952
HSV2-gE_R314G_gI (from UniProt P89475 21-416; P06764 21-256) (receptor)	572	0.478	0.0052	9080
HSV2-gE_R320P_gI (from UniProt P89475 21-416; P06764 21-256) (receptor)	1650	0.267	0.00235	1420
HSV2-gE_R320L_gI (from UniProt P89475 21-416; P06764 21-256) (receptor)	291	0.785	0.00389	13400
HSV2-gE_R320I_gI (from UniProt P89475 21-416; P06764 21-256) (receptor)	406	0.622	0.00438	10800
HSV2-gE_P318Y_gI (from UniProt P89475 21-416; P06764 21-256) (receptor)	< 0.001	0.0215	< 1e-07	3480
HSV2-gE_P317K_gI (from UniProt P89475 21-416; P06764 21-256) (receptor)	374	0.13	0.00136	3640
HSV2-gE_S338T_gI (from UniProt P89475 21-416; P06764 21-256) (receptor)	186	0.785	0.00254	13600
HSV2-gE_H245R_gI (from UniProt P89475 21-416; P06764 21-256) (receptor)	265	0.842	0.00416	15700
HSV2-gE_A248K V340M_gI (from UniProt P89475 21-416; P06764 21-256) (receptor)	< 0.001	0.0007	< 1e-07	237
HSV2-gE_A246W P317F_gI (from UniProt P89475 21-416; P06764 21-256) (receptor)	< 0.001	0.101	< 1e-07	6180
HSV2-gE_A248T F322P_gI (from UniProt P89475 21-416; P06764 21-256) (receptor)	1490	0.2	0.00426	2870
HSV2-gE_F322I_gI (from UniProt P89475 21-416; P06764 21-256) (receptor)	302	0.639	0.00363	12000
HSV2-gE_R314L_gI (from UniProt P89475 21-416; P06764 21-256) (receptor)	702	0.442	0.00521	7430
HSV2-gE_V340A_gI (from UniProt P89475 21-416; P06764 21-256) (receptor)	474	0.356	0.00422	8910

Substance	Kd [nM]	Response (nm)	koff [s⁻¹]	kon [M⁻¹ s⁻¹]
HSV2-gE_R314V_gI (from UniProt P89475 21-416; P06764 21-256) (receptor)	538	0.408	0.00487	9070
HSV2-gE_R314A_gI (from UniProt P89475 21-416; P06764 21-256) (receptor)	468	0.629	0.00557	11900
HSV2-gE_R314I_gI (from UniProt P89475 21-416; P06764 21-256) (receptor)	658	0.446	0.00556	8450
HSV2-gE_P317I_gI (from UniProt P89475 21-416; P06764 21-256) (receptor)	1000	0.243	0.00382	3810
HSV2-gE_P317F_gI (from UniProt P89475 21-416; P06764 21-256) (receptor)	8770	0.143	0.00166	189
HSV2-gE_V340P_gI (from UniProt P89475 21-416; P06764 21-256) (receptor)	321	0.566	0.00465	14500
HSV2-gE_R314N_gI (from UniProt P89475 21-416; P06764 21-256) (receptor)	1310	0.301	0.00748	5700
HSV2-gE_R314P_gI (from UniProt P89475 21-416; P06764 21-256) (receptor)	443	0.557	0.00474	10700
HSV2-gE_P317S_gI (from UniProt P89475 21-416; P06764 21-256) (receptor)	255	0.669	0.00358	14000
HSV2-gE_A246W P317K_gI (from UniProt P89475 21-416; P06764 21-256) (receptor)	< 0.001	0.071	< 1e-07	6090
HSV2-gE_H245T_gI (from UniProt P89475 21-416; P06764 21-256) (receptor)	813	0.493	0.00605	7450
HSV2-gE_V340M_gI (from UniProt P89475 21-416; P06764 21-256) (receptor)	278	0.621	0.00399	14300
HSV2-gE_A248K_gI (from UniProt P89475 21-416; P06764 21-256) (receptor)	450	0.477	0.00499	11100
HSV2-gE_A248K F322I_gI (from UniProt P89475 21-416; P06764 21-256) (receptor)	870	0.321	0.00525	6040
HSV2-gE_A248K F322A_gI (from UniProt P89475 21-416; P06764 21-256) (receptor)	408	0.481	0.00397	9720
HSV2-gE_R320N_gI (from UniProt P89475 21-416; P06764 21-256) (receptor)	828	0.379	0.00493	5950
HSV2-gE_H245A P319G_gI (from UniProt P89475 21-416; P06764 21-256) (receptor)	491	0.26	0.00391	7970
HSV2-gE_R320S_gI (from UniProt P89475 21-416; P06764 21-256) (receptor)	1050	0.343	0.00547	5190
HSV2-gE_F322N_gI (from UniProt P89475 21-416; P06764 21-256) (receptor)	239	0.73	0.00313	13100
HSV2-gE_A246W P317S_gI (from UniProt P89475 21-416; P06764 21-256) (receptor)	< 0.001	0.121	< 1e-07	3600
HSV2-gE_R320Q_gI (from UniProt P89475 21-416; P06764 21-256) (receptor)	902	0.351	0.00539	5980
HSV2-gE_R314T_gI (from UniProt P89475 21-416; P06764 21-256) (receptor)	575	0.417	0.0049	8530
HSV2-gE_F322T_gI (from UniProt P89475 21-416; P06764 21-256) (receptor)	179	0.762	0.00269	15000
HSV2-gE_H245K_gI (from UniProt P89475 21-416; P06764 21-256) (receptor)	686	0.562	0.00614	8960
